In paper PMC10227007 one finds relative density of the co-precipitated COG1-HA band after 24 h, relative density of the co-precipitated COG1-HA band after 48 h and BiFC fluorescence intensity data, which are given here for two substances.

Assay [1] concerns the target MYC-OsSERL2 (overexpression line MYC-OsSERL2-OE1) (Oryza sativa japonica cv. Zhonghua 11 (ZH11)). In words: co-IP; seedlings of COG1-HA-L1/MYC-OsSERL2-OE1 treated at 4 °C for 0, 24 and 48 h; total protein adjusted to equivalent levels of COG1-HA; precipitated with Anti-c-Myc Magnetic Beads, COG1-HA band measured by Image J (0 h = 1.0).
Assay [2] addresses OsSERL2-MYC-cCFP (Oryza sativa japonica cv. Zhonghua 11 (ZH11)). Put plainly: split reporter (BiFC, NanoBiT); BiFC in rice protoplasts, nVenus and cCFP fusions co-expressed, YFP fluorescence by confocal microscopy (Leica TCS SP5); in one experiment the protoplasts were kept at 28 °C or 4 °C for 24 h and the intensity measured by Image J.

As to “COG1-HA (from the COG1::COG1-HA transgene, line COG1-HA-L1) (receptor)”, in assay [1], the relative density of the co-precipitated COG1-HA band after 24 h at 4 °C, against 0 h (1.0) (relative to 0 h (1.0)) came out at 4.7 and the relative density of the co-precipitated COG1-HA band after 48 h at 4 °C, against 0 h (1.0) (relative to 0 h (1.0)) worked out at 5.8. COG1-HA-nVenus (receptor) returned a BiFC fluorescence intensity at 4 °C for 24 h, relative to 28 °C (1.0) (relative to 28 °C (1.0)) in assay [2] of 4.1.
